Target: PDGFRs (PDGFRα and PDGFRβ subunit dimers) (mouse (endogenous in MEFs)) (UniProt P26618)
Assay: affinity purification with mass spectrometry

UniProt P26618, sequence (P26618 25-1089, chain 1 of 2): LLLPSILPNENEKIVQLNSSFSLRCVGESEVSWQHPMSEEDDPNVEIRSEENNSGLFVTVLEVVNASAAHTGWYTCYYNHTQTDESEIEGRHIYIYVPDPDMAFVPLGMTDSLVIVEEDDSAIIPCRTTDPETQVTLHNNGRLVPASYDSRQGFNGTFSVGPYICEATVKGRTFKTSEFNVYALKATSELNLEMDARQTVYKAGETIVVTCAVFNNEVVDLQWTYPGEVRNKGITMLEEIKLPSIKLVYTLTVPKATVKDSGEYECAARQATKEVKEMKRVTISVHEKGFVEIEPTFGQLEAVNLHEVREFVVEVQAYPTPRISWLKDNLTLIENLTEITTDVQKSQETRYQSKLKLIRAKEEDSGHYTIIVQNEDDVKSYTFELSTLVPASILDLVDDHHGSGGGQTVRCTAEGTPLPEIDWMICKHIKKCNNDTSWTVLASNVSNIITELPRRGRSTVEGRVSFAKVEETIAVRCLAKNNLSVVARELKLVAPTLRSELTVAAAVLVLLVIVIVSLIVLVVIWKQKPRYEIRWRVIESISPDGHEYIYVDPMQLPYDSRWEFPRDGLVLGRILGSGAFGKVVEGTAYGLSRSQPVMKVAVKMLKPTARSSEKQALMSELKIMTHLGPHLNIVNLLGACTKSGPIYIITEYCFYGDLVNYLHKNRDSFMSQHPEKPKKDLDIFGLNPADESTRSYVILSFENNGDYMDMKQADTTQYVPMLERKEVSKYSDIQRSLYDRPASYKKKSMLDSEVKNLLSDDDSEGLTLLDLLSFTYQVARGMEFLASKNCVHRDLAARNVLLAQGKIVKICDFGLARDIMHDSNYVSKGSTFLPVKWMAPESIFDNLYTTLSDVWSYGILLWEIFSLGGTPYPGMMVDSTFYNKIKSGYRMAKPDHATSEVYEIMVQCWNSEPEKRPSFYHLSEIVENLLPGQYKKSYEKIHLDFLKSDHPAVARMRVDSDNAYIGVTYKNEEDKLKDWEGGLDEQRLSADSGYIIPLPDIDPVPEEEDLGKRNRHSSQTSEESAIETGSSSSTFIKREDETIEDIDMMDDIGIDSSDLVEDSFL
UniProt P26618, sequence (P05622 32-1098, chain 2 of 2, further chain): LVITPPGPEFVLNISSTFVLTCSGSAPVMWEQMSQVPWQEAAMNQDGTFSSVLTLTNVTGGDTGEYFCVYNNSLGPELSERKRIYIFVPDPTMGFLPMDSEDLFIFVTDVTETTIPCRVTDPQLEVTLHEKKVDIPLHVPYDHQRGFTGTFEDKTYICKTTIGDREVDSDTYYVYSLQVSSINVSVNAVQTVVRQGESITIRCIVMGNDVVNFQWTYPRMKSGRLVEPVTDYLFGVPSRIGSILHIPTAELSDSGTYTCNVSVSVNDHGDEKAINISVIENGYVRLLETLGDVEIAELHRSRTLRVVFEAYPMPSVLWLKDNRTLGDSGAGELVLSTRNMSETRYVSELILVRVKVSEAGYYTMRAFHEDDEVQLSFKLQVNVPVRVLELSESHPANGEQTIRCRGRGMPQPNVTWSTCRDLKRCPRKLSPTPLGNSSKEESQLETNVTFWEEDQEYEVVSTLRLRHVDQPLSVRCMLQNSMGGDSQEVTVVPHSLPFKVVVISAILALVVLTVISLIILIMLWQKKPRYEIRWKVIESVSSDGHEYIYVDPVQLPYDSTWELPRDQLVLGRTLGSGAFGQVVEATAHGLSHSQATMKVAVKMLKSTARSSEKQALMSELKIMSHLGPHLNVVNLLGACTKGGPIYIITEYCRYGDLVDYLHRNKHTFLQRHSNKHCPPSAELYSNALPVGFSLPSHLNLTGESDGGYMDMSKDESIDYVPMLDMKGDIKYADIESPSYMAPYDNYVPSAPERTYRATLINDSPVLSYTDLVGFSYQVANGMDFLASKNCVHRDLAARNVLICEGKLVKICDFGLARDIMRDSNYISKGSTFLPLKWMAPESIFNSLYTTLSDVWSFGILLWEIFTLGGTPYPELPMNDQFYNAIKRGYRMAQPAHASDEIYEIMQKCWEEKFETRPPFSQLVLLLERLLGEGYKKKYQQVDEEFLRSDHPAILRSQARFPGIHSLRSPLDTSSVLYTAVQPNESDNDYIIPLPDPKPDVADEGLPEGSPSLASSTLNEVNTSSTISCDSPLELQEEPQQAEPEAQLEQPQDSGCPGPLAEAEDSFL

percent of total associated with anti-PDGFR-IPs: > 80%
Substance: total p85
